The numbers were not newly measured in patent publication US20240209043A1, “NON-ANTIBODY BINDING PEPTIDES AND THEIR ANALOGS DUAL-TARGETING TO PD-1 AND PD-L1, AND USES THEREOF” (ORAL SUBSIDIARY SUN YAT-SEN UNIVERSITY HOSPITAL, priority 2021, published 2024), which cites them from elsewhere.

In the data set the target is PD-1 (Homo sapiens, UniProt Q15116). Conditions: background section; read-out: Kd-value of antibody drug targeting PD-1.
Chain of PD-1 (Q15116 25-288): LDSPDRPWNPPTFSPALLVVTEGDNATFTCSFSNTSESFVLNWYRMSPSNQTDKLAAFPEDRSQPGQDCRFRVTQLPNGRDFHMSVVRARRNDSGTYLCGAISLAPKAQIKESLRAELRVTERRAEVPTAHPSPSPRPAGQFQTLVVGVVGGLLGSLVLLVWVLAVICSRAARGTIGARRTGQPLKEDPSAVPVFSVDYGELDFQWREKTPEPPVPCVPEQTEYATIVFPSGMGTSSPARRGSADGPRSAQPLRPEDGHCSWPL

B1: Camrelizumab (antibody, chains of the INN, looked up, V domains shown)
VH: EVQLVESGGGLVQPGGSLRLSCAASGFTFSSYMMSWVRQAPGKGLEWVATISGGGANTYYPDSVKGRFTISRDNAKNSLYLQMNSLRAEDTAVYYCARQLYYFDYWGQGTTVTVSS
VL: DIQMTQSPSSLSASVGDRVTITCLASQTIGTWLTWYQQKPGKAPKLLIYTATSLADGVPSRFSGSGSGTDFTLTISSLQPEDFATYYCQQVYSIPWTFGGGTKVEIK
notes: marketed IgG4 antibody drug targeting PD-1
For B1, the Kd is 3.31 nM.

By Kd is commonly meant a measure of binding affinity in units of concentration.
